# Assay results as given in US20260001928A1 (CORTERIA PHARMACEUTICALS, priority 2022, published 2026).
# *1 amine or outer side, *2 acyl side, *3 side chain or, on linkers, in order; H or OH if unused. Where no end group is shown, it is not given here. Side-chain parts run from the residue outwards. [ ]: non-standard residue; d: D form. The star is where a group is joined. C20 diacid = O=C(O)CCCCCCCCCCCCCCCCCCC(=O)*; γGlu = O=C(O)[C@H](CCC(=O)[*:2])N[*:1]; NMeI = CC[C@H](C)[C@H](NC)C(=O)O; Pentanoyl = CCCCC(=O)*; Aib = CC(C)(N)C(=O)O
# T1: CRF1R receptor (UniProt P34998 24-415, limits assumed)
# T1 sequence (looked up): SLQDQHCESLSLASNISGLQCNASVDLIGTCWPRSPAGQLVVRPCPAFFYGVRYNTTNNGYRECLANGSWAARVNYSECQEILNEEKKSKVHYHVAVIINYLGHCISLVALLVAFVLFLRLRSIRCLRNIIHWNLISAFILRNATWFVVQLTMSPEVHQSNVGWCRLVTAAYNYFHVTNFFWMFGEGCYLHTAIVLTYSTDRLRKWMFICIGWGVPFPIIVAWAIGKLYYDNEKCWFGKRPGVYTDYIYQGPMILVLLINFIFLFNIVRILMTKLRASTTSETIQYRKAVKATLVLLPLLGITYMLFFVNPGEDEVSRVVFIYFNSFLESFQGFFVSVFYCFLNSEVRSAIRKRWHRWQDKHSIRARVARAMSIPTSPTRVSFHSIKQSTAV
# B1: SEQ ID NO 217 (peptide)
# peptide: [NMeI]VLSLD[dV]PIKLK([γGlu-C20 diacid])KILLEQEKQKAQREQAETN[Aib]QILAQV-NH2
# modifications: N-terminus assumed
# SMILES: CC[C@H](C)[C@H](NC)C(=O)N[C@H](C(=O)N[C@@H](CC(C)C)C(=O)N[C@@H](CO)C(=O)N[C@@H](CC(C)C)C(=O)N[C@@H](CC(=O)O)C(=O)N[C@@H](C(=O)N1CCC[C@H]1C(=O)N[C@H](C(=O)N[C@@H](CCCCN)C(=O)N[C@@H](CC(C)C)C(=O)N[C@@H](CCCCNC(=O)CC[C@H](NC(=O)CCCCCCCCCCCCCCCCCCC(=O)O)C(=O)O)C(=O)N[C@@H](CCCCN)C(=O)N[C@H](C(=O)N[C@@H](CC(C)C)C(=O)N[C@@H](CC(C)C)C(=O)N[C@@H](CCC(=O)O)C(=O)N[C@@H](CCC(N)=O)C(=O)N[C@@H](CCC(=O)O)C(=O)N[C@@H](CCCCN)C(=O)N[C@@H](CCC(N)=O)C(=O)N[C@@H](CCCCN)C(=O)N[C@@H](C)C(=O)N[C@@H](CCC(N)=O)C(=O)N[C@@H](CCCNC(=N)N)C(=O)N[C@@H](CCC(=O)O)C(=O)N[C@@H](CCC(N)=O)C(=O)N[C@@H](C)C(=O)N[C@@H](CCC(=O)O)C(=O)N[C@H](C(=O)N[C@@H](CC(N)=O)C(=O)NC(C)(C)C(=O)N[C@@H](CCC(N)=O)C(=O)N[C@H](C(=O)N[C@@H](CC(C)C)C(=O)N[C@@H](C)C(=O)N[C@@H](CCC(N)=O)C(=O)N[C@H](C(N)=O)C(C)C)[C@@H](C)CC)[C@@H](C)O)[C@@H](C)CC)[C@@H](C)CC)C(C)C)C(C)C
# B2: SEQ ID NO 220 (peptide)
# peptide: Pentanoyl-VLSLD[dV]PIKLK([γGlu-C20 diacid])KILLEQEKQK[Aib]QREQAETN[Aib]QILAQV-NH2
# SMILES: CCCCC(=O)N[C@H](C(=O)N[C@@H](CC(C)C)C(=O)N[C@@H](CO)C(=O)N[C@@H](CC(C)C)C(=O)N[C@@H](CC(=O)O)C(=O)N[C@@H](C(=O)N1CCC[C@H]1C(=O)N[C@H](C(=O)N[C@@H](CCCCN)C(=O)N[C@@H](CC(C)C)C(=O)N[C@@H](CCCCNC(=O)CC[C@H](NC(=O)CCCCCCCCCCCCCCCCCCC(=O)O)C(=O)O)C(=O)N[C@@H](CCCCN)C(=O)N[C@H](C(=O)N[C@@H](CC(C)C)C(=O)N[C@@H](CC(C)C)C(=O)N[C@@H](CCC(=O)O)C(=O)N[C@@H](CCC(N)=O)C(=O)N[C@@H](CCC(=O)O)C(=O)N[C@@H](CCCCN)C(=O)N[C@@H](CCC(N)=O)C(=O)N[C@@H](CCCCN)C(=O)NC(C)(C)C(=O)N[C@@H](CCC(N)=O)C(=O)N[C@@H](CCCNC(=N)N)C(=O)N[C@@H](CCC(=O)O)C(=O)N[C@@H](CCC(N)=O)C(=O)N[C@@H](C)C(=O)N[C@@H](CCC(=O)O)C(=O)N[C@H](C(=O)N[C@@H](CC(N)=O)C(=O)NC(C)(C)C(=O)N[C@@H](CCC(N)=O)C(=O)N[C@H](C(=O)N[C@@H](CC(C)C)C(=O)N[C@@H](C)C(=O)N[C@@H](CCC(N)=O)C(=O)N[C@H](C(N)=O)C(C)C)[C@@H](C)CC)[C@@H](C)O)[C@@H](C)CC)[C@@H](C)CC)C(C)C)C(C)C
# B3: SEQ ID NO 219 (peptide)
# peptide: Pentanoyl-VLSLD[dV]PIKLK([γGlu-C20 diacid])KILLEQEKQKKQREQAETN[Aib]QILAQV-NH2
# SMILES: CCCCC(=O)N[C@H](C(=O)N[C@@H](CC(C)C)C(=O)N[C@@H](CO)C(=O)N[C@@H](CC(C)C)C(=O)N[C@@H](CC(=O)O)C(=O)N[C@@H](C(=O)N1CCC[C@H]1C(=O)N[C@H](C(=O)N[C@@H](CCCCN)C(=O)N[C@@H](CC(C)C)C(=O)N[C@@H](CCCCNC(=O)CC[C@H](NC(=O)CCCCCCCCCCCCCCCCCCC(=O)O)C(=O)O)C(=O)N[C@@H](CCCCN)C(=O)N[C@H](C(=O)N[C@@H](CC(C)C)C(=O)N[C@@H](CC(C)C)C(=O)N[C@@H](CCC(=O)O)C(=O)N[C@@H](CCC(N)=O)C(=O)N[C@@H](CCC(=O)O)C(=O)N[C@@H](CCCCN)C(=O)N[C@@H](CCC(N)=O)C(=O)N[C@@H](CCCCN)C(=O)N[C@@H](CCCCN)C(=O)N[C@@H](CCC(N)=O)C(=O)N[C@@H](CCCNC(=N)N)C(=O)N[C@@H](CCC(=O)O)C(=O)N[C@@H](CCC(N)=O)C(=O)N[C@@H](C)C(=O)N[C@@H](CCC(=O)O)C(=O)N[C@H](C(=O)N[C@@H](CC(N)=O)C(=O)NC(C)(C)C(=O)N[C@@H](CCC(N)=O)C(=O)N[C@H](C(=O)N[C@@H](CC(C)C)C(=O)N[C@@H](C)C(=O)N[C@@H](CCC(N)=O)C(=O)N[C@H](C(N)=O)C(C)C)[C@@H](C)CC)[C@@H](C)O)[C@@H](C)CC)[C@@H](C)CC)C(C)C)C(C)C
# B4: SEQ ID NO 221 (peptide)
# peptide: Pentanoyl-VLSLD[dV]PIKLK([γGlu-C20 diacid])KILLEQEAQKKQREQAETN[Aib]QILAQV-NH2
# SMILES: CCCCC(=O)N[C@H](C(=O)N[C@@H](CC(C)C)C(=O)N[C@@H](CO)C(=O)N[C@@H](CC(C)C)C(=O)N[C@@H](CC(=O)O)C(=O)N[C@@H](C(=O)N1CCC[C@H]1C(=O)N[C@H](C(=O)N[C@@H](CCCCN)C(=O)N[C@@H](CC(C)C)C(=O)N[C@@H](CCCCNC(=O)CC[C@H](NC(=O)CCCCCCCCCCCCCCCCCCC(=O)O)C(=O)O)C(=O)N[C@@H](CCCCN)C(=O)N[C@H](C(=O)N[C@@H](CC(C)C)C(=O)N[C@@H](CC(C)C)C(=O)N[C@@H](CCC(=O)O)C(=O)N[C@@H](CCC(N)=O)C(=O)N[C@@H](CCC(=O)O)C(=O)N[C@@H](C)C(=O)N[C@@H](CCC(N)=O)C(=O)N[C@@H](CCCCN)C(=O)N[C@@H](CCCCN)C(=O)N[C@@H](CCC(N)=O)C(=O)N[C@@H](CCCNC(=N)N)C(=O)N[C@@H](CCC(=O)O)C(=O)N[C@@H](CCC(N)=O)C(=O)N[C@@H](C)C(=O)N[C@@H](CCC(=O)O)C(=O)N[C@H](C(=O)N[C@@H](CC(N)=O)C(=O)NC(C)(C)C(=O)N[C@@H](CCC(N)=O)C(=O)N[C@H](C(=O)N[C@@H](CC(C)C)C(=O)N[C@@H](C)C(=O)N[C@@H](CCC(N)=O)C(=O)N[C@H](C(N)=O)C(C)C)[C@@H](C)CC)[C@@H](C)O)[C@@H](C)CC)[C@@H](C)CC)C(C)C)C(C)C
# B5: SEQ ID NO 222 (peptide)
# peptide: Pentanoyl-VLSLD[dV]PIKLK([γGlu-C20 diacid])KILLEQEKQKAQREQAETN[Aib]QILAQV-NH2
# SMILES: CCCCC(=O)N[C@H](C(=O)N[C@@H](CC(C)C)C(=O)N[C@@H](CO)C(=O)N[C@@H](CC(C)C)C(=O)N[C@@H](CC(=O)O)C(=O)N[C@@H](C(=O)N1CCC[C@H]1C(=O)N[C@H](C(=O)N[C@@H](CCCCN)C(=O)N[C@@H](CC(C)C)C(=O)N[C@@H](CCCCNC(=O)CC[C@H](NC(=O)CCCCCCCCCCCCCCCCCCC(=O)O)C(=O)O)C(=O)N[C@@H](CCCCN)C(=O)N[C@H](C(=O)N[C@@H](CC(C)C)C(=O)N[C@@H](CC(C)C)C(=O)N[C@@H](CCC(=O)O)C(=O)N[C@@H](CCC(N)=O)C(=O)N[C@@H](CCC(=O)O)C(=O)N[C@@H](CCCCN)C(=O)N[C@@H](CCC(N)=O)C(=O)N[C@@H](CCCCN)C(=O)N[C@@H](C)C(=O)N[C@@H](CCC(N)=O)C(=O)N[C@@H](CCCNC(=N)N)C(=O)N[C@@H](CCC(=O)O)C(=O)N[C@@H](CCC(N)=O)C(=O)N[C@@H](C)C(=O)N[C@@H](CCC(=O)O)C(=O)N[C@H](C(=O)N[C@@H](CC(N)=O)C(=O)NC(C)(C)C(=O)N[C@@H](CCC(N)=O)C(=O)N[C@H](C(=O)N[C@@H](CC(C)C)C(=O)N[C@@H](C)C(=O)N[C@@H](CCC(N)=O)C(=O)N[C@H](C(N)=O)C(C)C)[C@@H](C)CC)[C@@H](C)O)[C@@H](C)CC)[C@@H](C)CC)C(C)C)C(C)C
# B6: SEQ ID NO 218 (peptide)
# peptide: [NMeI]VLSLD[dV]PIKLK([γGlu-C20 diacid])KILLEQEKQKEQREQAETN[Aib]QILAQV-NH2
# modifications: N-terminus assumed
# SMILES: CC[C@H](C)[C@H](NC)C(=O)N[C@H](C(=O)N[C@@H](CC(C)C)C(=O)N[C@@H](CO)C(=O)N[C@@H](CC(C)C)C(=O)N[C@@H](CC(=O)O)C(=O)N[C@@H](C(=O)N1CCC[C@H]1C(=O)N[C@H](C(=O)N[C@@H](CCCCN)C(=O)N[C@@H](CC(C)C)C(=O)N[C@@H](CCCCNC(=O)CC[C@H](NC(=O)CCCCCCCCCCCCCCCCCCC(=O)O)C(=O)O)C(=O)N[C@@H](CCCCN)C(=O)N[C@H](C(=O)N[C@@H](CC(C)C)C(=O)N[C@@H](CC(C)C)C(=O)N[C@@H](CCC(=O)O)C(=O)N[C@@H](CCC(N)=O)C(=O)N[C@@H](CCC(=O)O)C(=O)N[C@@H](CCCCN)C(=O)N[C@@H](CCC(N)=O)C(=O)N[C@@H](CCCCN)C(=O)N[C@@H](CCC(=O)O)C(=O)N[C@@H](CCC(N)=O)C(=O)N[C@@H](CCCNC(=N)N)C(=O)N[C@@H](CCC(=O)O)C(=O)N[C@@H](CCC(N)=O)C(=O)N[C@@H](C)C(=O)N[C@@H](CCC(=O)O)C(=O)N[C@H](C(=O)N[C@@H](CC(N)=O)C(=O)NC(C)(C)C(=O)N[C@@H](CCC(N)=O)C(=O)N[C@H](C(=O)N[C@@H](CC(C)C)C(=O)N[C@@H](C)C(=O)N[C@@H](CCC(N)=O)C(=O)N[C@H](C(N)=O)C(C)C)[C@@H](C)CC)[C@@H](C)O)[C@@H](C)CC)[C@@H](C)CC)C(C)C)C(C)C
# Molecular target: T1, CRF1R receptor
# Experiment: cell-based or functional assay
Emax (% I),EC50,Binder
33%,,B1
32%,,B2
48%,222 nM,B3
79%,22.5 nM,B4
50%,196 nM,B5
24%,,B6

# Molecular target: human corticotropin-releasing factor 2a (CRF2a receptor) (human), Q13324
# Experiment: cell-based or functional assay
# human corticotropin-releasing factor 2a (CRF2a receptor) (human), Q13324, sequence (Q13324 20-411): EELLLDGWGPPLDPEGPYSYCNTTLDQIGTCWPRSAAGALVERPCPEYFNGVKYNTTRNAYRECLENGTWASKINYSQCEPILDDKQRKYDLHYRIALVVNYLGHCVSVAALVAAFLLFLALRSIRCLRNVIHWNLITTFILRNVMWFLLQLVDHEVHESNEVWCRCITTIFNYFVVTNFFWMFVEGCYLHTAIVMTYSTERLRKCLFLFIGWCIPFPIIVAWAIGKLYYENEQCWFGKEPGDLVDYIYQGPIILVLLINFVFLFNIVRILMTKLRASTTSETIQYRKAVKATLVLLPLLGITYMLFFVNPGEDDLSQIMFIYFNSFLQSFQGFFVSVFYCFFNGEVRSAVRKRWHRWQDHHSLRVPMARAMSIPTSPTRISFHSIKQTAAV
row,EC50 [nM] (cAMP),Binder
1,0.09 nM,B1
2,0.27 nM,B2
3,0.16 nM,B3
4,0.18 nM,B4
5,0.14 nM,B5
6,0.11 nM,B6
